These results are taken from article PMC9074039, “Molecular analysis and essentiality of Aro1 shikimate biosynthesis multi-enzyme in Candida albicans” (Life Science Alliance, 2022).

Series [1] concerns the molecule itself. As to the kind of experiment: crystal structure; Aro1_(DHQS) with 2 mM NADH and 0.5 mM ZnCl2, sitting drop, room temperature; two copies in the asymmetric unit.
Series [2] deals with the molecule itself. As to the kind of experiment: SEC; Superdex 200, 150 mM NaCl, 10 mM Hepes pH 7.5; tag-free Aro1 purified from C. albicans. On the technique in general: Size exclusion chromatography separates by hydrodynamic size, large species first.
Series [3] concerns the molecule itself. The series can be described thus: crystal structure; Aro1_(SK-DHQase-DHSD), sitting drop, room temperature; four copies in the asymmetric unit.

B1: Aro1_(DHQS), C. albicans Aro1 residues 1-387 (DHQS domain) (domain or fragment, UniProt Q5AME2 1-387, looked up)
chain: MSIEKVPILGKETIHVGYGIADHIVREVIANLASSTYVIVTDTNMARTPQYSKLTDDFKTNLSEKRPESRLLTYCVSPGENNKNRATKAAVEDFLLQQGCTRDTVILAVGGGVIGDMIGFVAATFMRGVRVVQVPTTLLAMVDSSVGGKTAIDTPLGKNFIGAFHQPEYVFCDVSFLETLPARQFINGMAEVVKTAAIWNEEEFTRLENFSKKFLSVVTSKKPDLQSIKAELVKTVLESVRVKAGVVSSDEKEAGLRNLLNFGHTIGHAIEAVLTPEALHGECVSIGMIKEAELSRYLGILPPVAVARLSKCLVAYGLPVSIDDKEFLKKVGPKRHYVEIDILLKKMAIDKKNDGSKIRCVLLEKIGKCYQLKAHQVSKQDLSFVLT
notes: Aro1, Candida albicans, residues 1-387, 3-dehydroquinate synthase (DHQS) domain; Crystallised with NADH and ZnCl2; source: E. coli BL21(DE3) Gold, purified (Ni-NTA, TEV cleavage, second Ni-NTA); not shown: His6, N-terminal, cleaved
Take B1: the binding result in series [1] is “binds”.

B2: full-length C. albicans Aro1 (enzyme, UniProt Q5AME2 1-1551, looked up)
chain: MSIEKVPILGKETIHVGYGIADHIVREVIANLASSTYVIVTDTNMARTPQYSKLTDDFKTNLSEKRPESRLLTYCVSPGENNKNRATKAAVEDFLLQQGCTRDTVILAVGGGVIGDMIGFVAATFMRGVRVVQVPTTLLAMVDSSVGGKTAIDTPLGKNFIGAFHQPEYVFCDVSFLETLPARQFINGMAEVVKTAAIWNEEEFTRLENFSKKFLSVVTSKKPDLQSIKAELVKTVLESVRVKAGVVSSDEKEAGLRNLLNFGHTIGHAIEAVLTPEALHGECVSIGMIKEAELSRYLGILPPVAVARLSKCLVAYGLPVSIDDKEFLKKVGPKRHYVEIDILLKKMAIDKKNDGSKIRCVLLEKIGKCYQLKAHQVSKQDLSFVLTDEVLVHPFTNPPKENIIVPPGSKSISNRALILAALGNGTVRVKNLLHSDDTKHMLDAVASLKGAEISTEDNGETIVVKGNGGNLVTSGEELYLGNAGTASRFLTTVASLVGKSQASDDVILTGNARMQERPIGPLVDALGSNGSEIEYLNKQGSLPLKISAGNGLKGGRIELAATISSQYVSSILMCAPYAKEPVTLALVGGKPISQLYIDMTCAMMKSFGIEVTKSTTEEYTYHIPKGTYKNPSEYVIESDASSATYPLAFAAMTGTSCTIPNIGSSSLQGDAKFAVDVLKPMGCKVEQTTTSTTVTGPPRGHLKPLPHVDMEPMTDAFLTASVVAAVAKGGSSTSITGIANQRVKECNRIEAMVTELAKFGVPANELPDGIEIHGIDIEDLKTPEISKRGVSSYDDHRVAMSFSLLAGLCKEPVLILERSTTGKTWPGWWDILHSKFKIELDGYEPPFNTDKHVDKSSDKSIIVIGMRGTGKSTLSEWLASFLGFKMLDMDKYLEEKLGTGIKSLIKAKGWEYFRQEEAIVAKECFTKFSKGYVLSTGGGIVEGEDARQQLKSYADNGGIVLHLHRDLDETVTFLAADTTRPAYSSEVQEVWLRREKWYHECSNYHFYSSHCSTEDEFNHLRRSFVNYIKLITGAERPVVPAGRSAAVVLTSPDLNEVVGDLESITIGADAVELRVDLFKDTSAEFVAAQIAVIRKHADLPIIYTVRTVSQGGKFPDENVDELKSLLLLGIRLGVAYVDLQLTAPNELIEEISSKKGFTRVIGTYQDINGELKWNNVEWKNKYNQGVSMNADIVRLVGKANSIQDNLDLENFKKQNTLKPLIAFNLGSQGKLSQVLNGTFTPISHKLLPNDEEFLTIGELNQTYFDIGGFTAKKFWVIGSPIEHSRSPNLHNAGYKALNLPYQFGRFEATDVDVVYDNLINKPDFGGLAITMPLKLDIMKFATKLSDAAETIGAVNTLIPIEGGYFGDNTDWVGISNSFIRAGVPPKSSSNGLVVGAGGTSRAAIYALHQMGCAKIYLVNRTAAKLEELVKSFPKDYNLEIVETEQQADKASKVSLAVSCIPADKPLDGEVLKKIERILSNGSEQSAGFKPTLLEASYKPRVTPIMKLTEEQYKWKVIPGVEMLVNQGDRQFKLHTGFTAPYEIIHRAVVEE
notes: Aro1 pentafunctional shikimate pathway multi-enzyme (DHQS, EPSPS, SK, DHQase, DHSD domains), Candida albicans, full length, residues 1-1551; Expressed from the tagged genomic ARO1 alleles under the tetO promoter in C. albicans; the His6TEV tag was removed with TEV protease before SEC and cryo-EM; also called His6TEVAro1; wild-type Aro1; source: C. albicans CaLC6830 …
In the case of B2, in series [2], the stoichiometry N (as a rule, a count of units in the complex or per binding partner) was found to be 2.

B3: Aro1_(SK-DHQase-DHSD), C. albicans Aro1 residues 845-1,551 (SK, DHQase and DHSD domains) (domain or fragment, UniProt Q5AME2 845-1551, looked up)
chain: PPFNTDKHVDKSSDKSIIVIGMRGTGKSTLSEWLASFLGFKMLDMDKYLEEKLGTGIKSLIKAKGWEYFRQEEAIVAKECFTKFSKGYVLSTGGGIVEGEDARQQLKSYADNGGIVLHLHRDLDETVTFLAADTTRPAYSSEVQEVWLRREKWYHECSNYHFYSSHCSTEDEFNHLRRSFVNYIKLITGAERPVVPAGRSAAVVLTSPDLNEVVGDLESITIGADAVELRVDLFKDTSAEFVAAQIAVIRKHADLPIIYTVRTVSQGGKFPDENVDELKSLLLLGIRLGVAYVDLQLTAPNELIEEISSKKGFTRVIGTYQDINGELKWNNVEWKNKYNQGVSMNADIVRLVGKANSIQDNLDLENFKKQNTLKPLIAFNLGSQGKLSQVLNGTFTPISHKLLPNDEEFLTIGELNQTYFDIGGFTAKKFWVIGSPIEHSRSPNLHNAGYKALNLPYQFGRFEATDVDVVYDNLINKPDFGGLAITMPLKLDIMKFATKLSDAAETIGAVNTLIPIEGGYFGDNTDWVGISNSFIRAGVPPKSSSNGLVVGAGGTSRAAIYALHQMGCAKIYLVNRTAAKLEELVKSFPKDYNLEIVETEQQADKASKVSLAVSCIPADKPLDGEVLKKIERILSNGSEQSAGFKPTLLEASYKPRVTPIMKLTEEQYKWKVIPGVEMLVNQGDRQFKLHTGFTAPYEIIHRAVVEE
notes: Aro1, Candida albicans, residues 845-1551: SK domain (857-1032), linker (1033-1038), DHQase domain (1039-1267), DHSD domain (1268-1551); Four copies in the asymmetric unit; also called Aro1_(SK-DHQ-DHSD); source: E. coli BL21(DE3) Gold, purified (Ni-NTA, TEV cleavage, second Ni-NTA); not shown: His6, N-terminal, cleaved
As for B3, the binding result in series [3] was “binds”.
